Laboratory results taken from patent publication US20210139579A1.
Positions count from the first letter of the chain named. Read-outs that look alike come from different tables or passages of the source.

B1: R12-G5-PNU (antibody, V domains shown)
VH: QEQLVESGGRLVTPGGSLTLSCKASGFDFSAYYMSWVRQAPGKGLEWIATIYPSSGKTYYATWVNGRFTISSDNAQNTVDLQMNSLTAADRATYFCARDSYADDGALFNIWGPGTLVTISS
VL: ELVLTQSPSVSAALGSPAKITCTLSSAHKTDTIDWYQQLQGEAPRYLMQVQSDGSYTKRPGVPDRFSGSSSGADRYLIIPSVQADDEADYYCGADYIGGYVFGGGTQLTVTG
modifications: EDA-PNU-159682 derivative on the C-terminal glycine (G5-PNU joined by sortase)
B2: XBR1-402-G5-PNU (antibody, V domains shown)
VH: QEQQKESGGGLFKPTDTLTLTCTASGFDISSYYMSWVRQAPGNGLEWIGAIGISGNAYYASWAKSRSTITRNTNLNTVTLKMTSLTAADTATYFCARDHPTYGMDLWGPGTLVTVSS
VL: SYELTQLPSVSVSLGQTARITCEGNNIGSKAVHWYQQKPGLAPGLLIYDDDERPSGVPDRFSGSNSGDTATLTISGAQAGDEADYYCQVWDSSAYVFGGGTQLTVTG
modifications: EDA-PNU-159682 derivative on the C-terminal glycine (G5-PNU joined by sortase)
B3: Top43-G5-PNU (adc204) (antibody, V domains shown)
VH: QSLEESGGRLVTPGTPLTLTCTVSGFSLSSYWMSWVRQAPGKGLEWIGAIYGSGNTYYASWAKGRFTISKTSTTVDLKITSPTTEDTATYFCARDVHSTATDLWGPGTLVTISS
VL: SYELTQLPSVSVSLGQTARITCGGNNIGSKAVNWYQQKPGLAPGLLIYNDDERPSGVPDRFSGSNSGDTATLTISGAQAGDEADYYCQLWDSSAGAYVFGGGTQLTVTG
modifications: EDA-PNU-159682 derivative on the C-terminal glycine (G5-PNU joined by sortase)
B4: ERR1-301-G5-PNU (adc200) (antibody, V domains shown)
VH: QEQLEESGGGLVTPGGSLTLTCTASGFTISTYHMSWVRQAPGKGLEWIGSIYAGSGSTYYASWVNGRFTISSNTTQNTVSLQMNSLTVADTATYFCARDHPSYGMDLWGPGTLVTVSS
VL: B3 VL with N26S, N49D, G63A, G80E, G95V
modifications: EDA-PNU-159682 derivative on the C-terminal glycine (G5-PNU joined by sortase)

Experiments:
[1] = target: human ROR1 (hROR1) on the cell surface (human) (UniProt Q01973); experiment: cell-based or functional assay
[2] = target: human ROR1 (hROR1) on the cell surface (human) (UniProt Q01973); experiment: cell-based or functional assay; remark: listed apart in the source

Chain of human ROR1 (hROR1) on the cell surface (human) (Q01973 30-937): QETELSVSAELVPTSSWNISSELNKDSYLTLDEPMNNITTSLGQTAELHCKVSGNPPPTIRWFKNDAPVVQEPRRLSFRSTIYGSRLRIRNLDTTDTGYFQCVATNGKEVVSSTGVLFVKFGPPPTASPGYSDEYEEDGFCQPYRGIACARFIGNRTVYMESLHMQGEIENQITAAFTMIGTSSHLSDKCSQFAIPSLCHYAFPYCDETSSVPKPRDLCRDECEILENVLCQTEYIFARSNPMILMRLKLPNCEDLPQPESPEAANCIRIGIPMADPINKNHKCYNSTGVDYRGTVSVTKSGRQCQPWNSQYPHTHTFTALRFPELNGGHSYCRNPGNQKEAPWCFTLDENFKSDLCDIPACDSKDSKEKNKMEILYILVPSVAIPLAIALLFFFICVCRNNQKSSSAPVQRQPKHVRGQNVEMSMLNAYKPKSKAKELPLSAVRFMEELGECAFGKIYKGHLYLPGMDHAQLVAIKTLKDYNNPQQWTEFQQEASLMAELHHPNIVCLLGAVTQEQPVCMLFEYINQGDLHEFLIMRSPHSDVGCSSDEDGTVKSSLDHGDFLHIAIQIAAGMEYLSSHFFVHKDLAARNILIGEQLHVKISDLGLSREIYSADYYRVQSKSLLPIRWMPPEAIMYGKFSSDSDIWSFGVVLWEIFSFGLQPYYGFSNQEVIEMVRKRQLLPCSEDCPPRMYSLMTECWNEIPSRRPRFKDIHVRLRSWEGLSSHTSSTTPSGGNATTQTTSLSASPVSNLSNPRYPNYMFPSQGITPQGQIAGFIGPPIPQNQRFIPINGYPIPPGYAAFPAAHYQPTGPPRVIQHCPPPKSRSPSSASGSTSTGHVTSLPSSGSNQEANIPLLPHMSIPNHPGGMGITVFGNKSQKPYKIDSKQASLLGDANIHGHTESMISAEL

| Binder | IC50, in vitro cell killing of 697 cells [1] | IC50, in vitro cell killing of 697 cells [2] | IC50, in vitro cell killing of HS 578T cells [2] | IC50, in vitro cell killing of HT-29 cells [2] | IC50, in vitro cell killing of MDA-MB-468 cells [2] | IC50, in vitro cell killing of A549 cells [2] | IC50, in vitro cell killing of hROR1-overexpressing EMT-6 cells [2] |
| --- | --- | --- | --- | --- | --- | --- | --- |
| B1 | 0.873 µg/mL | 100 nM | 3.5 µg/mL | 10.3 µg/mL | 3.96 µg/mL |  |  |
| B2 |  |  | 1.4 µg/mL | 23.3 µg/mL |  | 177 µg/mL | 1.7 nM |
| B3 |  | 0.314 µg/mL | 0.707 µg/mL | 23.1 µg/mL | 0.463 µg/mL | 109 µg/mL |  |
| B4 |  | 0.592 µg/mL |  |  |  |  |  |
